Experimental data: IntAct's records for PubMed 23932588

B1: Tyrosine-protein phosphatase non-receptor type 5 (Mus musculus), P54830-1 (parent)
chain: MCCSERLLGLPQPVEMEAPDEAEGLPSKQKEMPPPPPPSPPSEPAQKLPPQGAGSHSLTVRSSLCLFAASQFLLACGVLWLSGHGHSWLQNTTDLISSSLTVLNHLGPVAWLGSGTWGIPSLLLVSLTVSLVIVTTLVWHLLKAPPEPPAPLPPEDRRQSVSRQPSFTYSEWMEEKVEDDFLDLDAVPETPVFDCVMDIKPETDPASLTVKSMGLQERRGSNVSLTLDMCTPGCNEEGFGYLVSPREESAHEYLLSASRVLRAEELHEKALDPFLLQAEFFEIPMNFVDPKEYDIPGLVRKNRYKTILPNPHSRVRLTSPDPEDPLSSYINANYIRGYSGEEKVYIATQGPIVSTVADFWRMVWQERTPIIVMITNIEEMNEKCTEYWPEEQVVHDGVEITVQKVIHTEDYRLRLISLRRGTEERSLKHYWFTSWPDQKTPDRAPPLLHLVREVEEAAQQEGPHCSPIIVHCSAGIGRTGCFIATSICCQQLRREGVVDILKTTCQLRQDRGGMIQTCEQYQFVHHAMSLYEKQLSLQSSE

Variants of: B1
Details: with MAPK14, Q16539-1
MAPK14, Q16539-1, sequence (Q16539 whole entry): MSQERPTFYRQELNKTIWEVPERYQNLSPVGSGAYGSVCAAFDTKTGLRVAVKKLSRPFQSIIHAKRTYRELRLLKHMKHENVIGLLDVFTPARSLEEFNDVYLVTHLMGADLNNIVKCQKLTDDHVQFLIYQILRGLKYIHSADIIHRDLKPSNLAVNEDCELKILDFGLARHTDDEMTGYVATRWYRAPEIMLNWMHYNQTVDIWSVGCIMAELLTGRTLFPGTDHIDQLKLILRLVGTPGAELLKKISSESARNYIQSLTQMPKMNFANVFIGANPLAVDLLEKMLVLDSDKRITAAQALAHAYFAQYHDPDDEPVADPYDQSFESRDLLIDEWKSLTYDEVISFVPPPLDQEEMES

Row | Variant | effect of a mutation on the interaction
1 | F274A;F281A | decreasing interaction strength
2 | F281A;I307A | decreasing interaction strength
